This data set is described as follows: Transferase activity of Fut7 on 3′-sialyl-N-acetyllactosamine assayed with CD39L3. The class given is biochemical. Particulars: 0.1 μg CD39L3, 40 μM GDP-fucose, 40 μM 3′-sialyl-N-acetyllactosamine, 37° C., 30 minutes. An excerpt: The GDP-Fucose, UDP-Glucose, CMP-NeuAc, CMP, UDP and GDP used in the following experiments were obtained from Sigma-Aldrich (St Louis, Mo.). The recombinant human Fut7, ST6Gal1, CD73, CD39L3, non-specific alkaline phosphatase TNAP, recombinant Clostridium Difficile toxin B (TcdB) containing the glycosyltransferase domain and Malachite Green Phosphate Detection Kit were obtained from R&D Systems (Minneapolis, Minn.). The 3′-Sialyl-N-acetyllactosamine was obtained from V-LABS, Inc (Convington, La.). Unless otherwise specified, each glycosyltransferase reaction was performed in 50 μL of a buffer of 25 mM Tris, 150 mM NaCl, 5 mM MgCl2 and 5 mM MnCl2, at pH 7.5 in a 96-well plate at room temperature for 20 minutes. To determine kinetic parameters of each glycosyltransferase, multiple reactions with varied amounts of either glycosyltransferase or substrates were preceded simultaneously in the presence of fixed amounts of all other components, including a phosphatase. A well containing all components except glycosyltransferase served as a blank control for each example. […] The plate was then read at 620 nm with a multi-well plate reader.
The only known function of fucosyltransferase 7 (Fut7) is the biosynthesis of sialy Lewis X epitope in leukocytes and high endothelial venule cells. […] The reaction was then stopped and detected by malachite reagents. […]

B1: Fut7: recombinant human fucosyltransferase 7 from R&D Systems (protein, UniProt Q11130 1-342, looked up)
Alpha-(1,3)-fucosyltransferase …: MNNAGHGPTRRLRGLGVLAGVALLAALWLLWLLGSAPRGTPAPQPTITILVWHWPFTDQPPELPSDTCTRYGIARCHLSANRSLLASADAVVFHHRELQTRRSHLPLAQRPRGQPWVWASMESPSHTHGLSHLRGIFNWVLSYRRDSDIFVPYGRLEPHWGPSPPLPAKSRVAAWVVSNFQERQLRARLYRQLAPHLRVDVFGRANGRPLCASCLVPTVAQYRFYLSFENSQHRDYITEKFWRNALVAGTVPVVLGPPRATYEAFVPADAFVHVDDFGSARELAAFLTGMNESRYQRFFAWRDRLRVRLFTDWRERFCAICDRYPHLPRSQVYEDLEGWFQA
For B1, the “specific activity of the enzyme” value was 12.6 pmol/min/µg.

Values taken from patent US9410182B2, “Phosphatase coupled glycosyltransferase assay” (Bio-Techne Corporation, priority 2010, dated 2016).
